Results reported in paper PMC12781075, “Crosstalk between arachidonic acid metabolism and glycolysis drives integrated metabolic-inflammatory reprogramming in macrophages” (International Journal of Biological Sciences, 2026).
Several values for one entry are separate records, joined by “and”; a condition that tells them apart may be missing. Equal values may be shown once.

Molecular target: pyruvate kinase M2 (mouse (endogenous in RAW264.7)) (UniProt P52480)
Test: cross-linking; RAW264.7 macrophages treated with 15KPF, lysed, lysate incubated with 2.5 mM disuccinimidyl suberate for 30 min; 10% SDS-PAGE and PKM2 immunoblot

Chain of pyruvate kinase M2, P52480 1-531 (enzyme; other documents disagree on this pair) (P52480 whole entry): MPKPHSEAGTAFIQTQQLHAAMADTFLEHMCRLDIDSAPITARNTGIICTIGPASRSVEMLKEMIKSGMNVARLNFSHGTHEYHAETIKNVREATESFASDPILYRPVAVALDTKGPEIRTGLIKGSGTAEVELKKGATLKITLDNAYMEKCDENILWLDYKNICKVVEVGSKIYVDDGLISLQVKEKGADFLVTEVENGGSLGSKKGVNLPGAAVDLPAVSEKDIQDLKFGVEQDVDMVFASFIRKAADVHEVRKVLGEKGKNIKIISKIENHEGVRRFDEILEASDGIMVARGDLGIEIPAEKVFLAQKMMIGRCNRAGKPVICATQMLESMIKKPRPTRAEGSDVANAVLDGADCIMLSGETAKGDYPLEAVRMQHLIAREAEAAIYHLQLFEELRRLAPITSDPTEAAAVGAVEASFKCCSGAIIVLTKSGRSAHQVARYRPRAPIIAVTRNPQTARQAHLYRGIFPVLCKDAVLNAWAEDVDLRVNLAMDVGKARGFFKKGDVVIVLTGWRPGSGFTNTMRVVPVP

stoichiometry N: 4 and 2
Substance: pyruvate kinase M2, P52480 1-531 (enzyme; other documents disagree on this pair)
